Data published in patent US9879094B2, “Nucleic acid molecules encoding for BACE1 antibodies” (Genentech, Inc., priority 2010, dated 2018).

Legend:
[1] = target: T1, BACE2 (Homo sapiens, UniProt Q9Y5Z0); experiment: SPR analysis, BACE2; assay type: binding
T1 sequence (Q9Y5Z0 63-518): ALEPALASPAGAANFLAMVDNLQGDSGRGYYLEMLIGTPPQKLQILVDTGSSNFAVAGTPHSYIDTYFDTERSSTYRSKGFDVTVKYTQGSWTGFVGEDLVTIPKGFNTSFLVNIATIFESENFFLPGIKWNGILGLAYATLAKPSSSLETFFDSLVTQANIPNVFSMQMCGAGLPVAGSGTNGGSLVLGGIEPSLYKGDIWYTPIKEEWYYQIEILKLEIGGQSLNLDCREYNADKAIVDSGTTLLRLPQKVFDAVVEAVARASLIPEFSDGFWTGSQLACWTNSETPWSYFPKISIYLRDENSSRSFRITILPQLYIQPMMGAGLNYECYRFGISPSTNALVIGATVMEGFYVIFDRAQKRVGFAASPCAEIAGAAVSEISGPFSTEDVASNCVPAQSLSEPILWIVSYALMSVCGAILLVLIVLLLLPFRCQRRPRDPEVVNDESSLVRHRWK
Description: Further characterization of this antibody was performed to better understand its function.

[2] = system: E16.5 cortical neurons and E16.5 hippocampal neurons; experiment: Aβ40 production in cortical and hippocampal neurons; assay type: cell-based, mouse; conditions: 24 hours
Description: Similar studies were also performed in dorsal root ganglia, cortical neurons and hippocampal neurons isolated from mice. Briefly, dissociated neuronal cultures were prepared from E13.5 dorsal root ganglia (DRG), E16.5 cortical neurons and E16.5 hippocampal neurons. Neurons were grown for five days in vitro. Fresh media containing YW412.8.31 anti-BACE antibody or control IgG1 was incubated with the neurons for 24 hours. Media was harvested and assayed for the presence of Aβ40 using the MSD® Rodent/Human (4G8) A1340 Ultrasensitive kit according to the Manufacturer's instructions. Aβ40 values were normalized for cell viability, as determined using the CellTiter-Glo Luminescent Cell Viability Assay (Promega). The experiment was performed at least three times, and each point was repeated in duplicate. Data was plotted using a four-parameter non-linear regression curve-fitting program (Kaleidagraph, Synergy Software).

[3] = target: T2, human BACE2 (Homo sapiens, UniProt Q9Y5Z0); experiment: MCE assay, BACE2; assay type: biochemical
T2 construct: the extracellular domain of human BACE2 enzyme (5 nM)
T2 sequence (Q9Y5Z0 63-473 limits assumed): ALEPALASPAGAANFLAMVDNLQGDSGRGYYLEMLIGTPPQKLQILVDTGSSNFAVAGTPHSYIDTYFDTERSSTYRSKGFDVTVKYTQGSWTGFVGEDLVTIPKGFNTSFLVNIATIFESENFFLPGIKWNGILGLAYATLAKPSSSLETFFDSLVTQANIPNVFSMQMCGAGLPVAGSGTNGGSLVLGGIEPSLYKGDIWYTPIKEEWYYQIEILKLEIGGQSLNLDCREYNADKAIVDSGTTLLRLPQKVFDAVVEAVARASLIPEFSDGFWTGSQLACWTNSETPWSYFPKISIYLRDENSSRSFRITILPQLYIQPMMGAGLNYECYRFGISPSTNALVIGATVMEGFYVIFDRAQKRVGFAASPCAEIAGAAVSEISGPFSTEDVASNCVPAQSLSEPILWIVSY
Description: The MCE assay reactions were carried out in a final volume of 20 μL per well in a 384-well microplate. A standard enzymatic reaction, initiated by the addition of 10 μL 2× substrate to 5 μL of 4× enzyme and […] of 4× compound, containing 12 nM human BACE1 extracellular domain, […] amyloid precursor protein beta secretase active site peptide (FAM-[…]-CONH2 (SEQ ID NO:55)), 50 mM NaOAc pH 4.4 and 0.1% CHAPS. The same reaction conditions were used for the extracellular domain of human BACE2 enzyme (5 nM) and the extracellular domain of Cathepsin D (6 nM, Calbiochem®). After incubation for 60 minutes at ambient temperature, the product and substrate in each reaction were separated using a 12-sipper microfluidic chip analyzed on an LC3000® (both, Caliper Life Sciences). The separation of product and substrate was optimized by choosing voltages and pressure using the manufacturer's optimization software. The separate buffer contained 100 mM HEPES pH 7.2, 0.015% Brij-35, 0.1% coating reagent #3, 10 mM EDTA and 5% DMSO. The separation conditions used a downstream voltage of −500V, an upstream voltage of −2250V and a screening pressure of −1.2 psi. The product and substrate fluorescence was excited at a wavelength of 488 nm and detected at a wavelength of 530 nm. Substrate conversion was calculated from the electropherogram using HTS Well Analyzer software (Caliper Life Sciences).

[4] = system: Aβ1-40 in wild-type mice; experiment: Wild-type mice, single IV dose, Aβ1-40 levels; assay type: in vivo, mouse; conditions: 50 mg/kg single IV
Description: The ability of anti-BACE1 antibodies YW412.8.31 to modulate amyloidogenic processing was also assessed in wild-type mice. Briefly, experiments were performed as described above. A single dose of control IgG antibody or YW412.8.31 anti-BACE1 antibody (50 mg/kg) was delivered systemically by intravenous (IV) injection to wild-type mice. After 24 or 48 hours, plasma and brain samples were harvested and Aβ1-40 levels were analyzed. The concentrations of total mouse Aβ1-40 in plasma and brain were determined using a sandwich ELISA following similar procedures described below for measuring total anti-BACE1 antibody concentrations. Briefly, rabbit polyclonal antibody specific for the C terminus of Aβ1-40 (Millipore, Bedford, Mass.) was coated onto plates, and biotinylated anti-mouse Aβ monoclonal antibody M3.2 (Covance, Dedham, Mass.) was used for detection. The assay had lower limit of quantification values of 1.96 pg/ml in plasma and 39.1 pg/g in brain. As is shown in FIG. 16, panel B, Plasma Aβ1-40 was reduced by 35% and cortical Aβ1-40 was reduced by 20%.

[5] = system: Aβ1-40 and Aβ1-42 in hAPP transgenic mice; experiment: hAPP transgenic mice, systemic (IP) dosing, Aβ levels; assay type: in vivo, mouse; conditions: 100 mg/kg IP, 3 doses Q4D
Description: Briefly, 5-month old human APP-expressing mice were treated with 30 mg/kg or 100 mg/kg YW412.8.31 antibody or vehicle by intra-peritoneal injection every four days for a total of three doses (i.e., at days 1, 5, and 9). Animals were euthanized two hours post the final dose. Serum, plasma, and brains were harvested and processed. Plasma, cortex and hippocampus were analyzed for levels of soluble Aβ1-40 and Aβ1-42 using an Amyloid beta (Aβ) ELISA test kit per manufacture's instructions (The Genetics Company). Pharmacokinetic analysis was performed on serum and brain homogenates.

[6] = target: Guinea pig BACE1 (Cavia porcellus, UniProt Q1KLR6); experiment: BIAcore SPR binding kinetics, guinea pig BACE1; conditions: guinea pig BACE1, pH 7.0
Chain of Guinea pig BACE1 (Q1KLR6 46-473): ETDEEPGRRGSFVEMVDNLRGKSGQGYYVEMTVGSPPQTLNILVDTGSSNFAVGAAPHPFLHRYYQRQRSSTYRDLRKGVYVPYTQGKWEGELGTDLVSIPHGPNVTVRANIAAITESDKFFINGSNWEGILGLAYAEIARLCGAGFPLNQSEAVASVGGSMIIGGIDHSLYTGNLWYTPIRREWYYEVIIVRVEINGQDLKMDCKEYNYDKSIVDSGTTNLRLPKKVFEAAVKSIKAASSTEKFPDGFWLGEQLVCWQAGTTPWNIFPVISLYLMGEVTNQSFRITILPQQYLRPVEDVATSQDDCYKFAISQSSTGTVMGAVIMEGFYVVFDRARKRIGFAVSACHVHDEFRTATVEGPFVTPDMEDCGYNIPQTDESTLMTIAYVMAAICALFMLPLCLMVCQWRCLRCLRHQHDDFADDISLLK

B1: YW412.8.31: affinity matured form of YW412.8 anti-BACE1 antibody (antibody, V domains shown)
VH: EVQLVESGGGLVQPGGSLRLSCAASGFTFLGYGIHWVRQAPGKGLEWVGWISPAGGSTDYADSVKGRFTISADTSKNTAYLQMNSLRAEDTAVYYCARGPFSPWVMDYWGQGTLVTVSS
VL: DIQMTQSPSSLSASVGDRVTITCRASQDVSTAVAWYQQKPGKAPKLLIYSASFLYSGVPSRFSGSGSGTDFTLTISSLQPEDFATYYCQQFPTYLPTFGQGTKVEIK
binding to BACE2 [1]: does not bind | IC50 [2]: ~2.5 nM | inhibition of human BACE2 [3]: did not inhibit | reduction of cortical Aβ1-40 ([4]; 24 or 48 hours): 20% | reduction of plasma Aβ1-40 ([4]; at 24 hr): 35% | reduction of Aβ1-40 and Aβ1-42 in the brain [5]: 15-22% | reduction of cortical Aβ1-40 and Aβ1-42 (trend) [5]: 12-18% | reduction of hippocampal Aβ1-40 and Aβ1-42 [5]: 13-22% | KOFF [6]: 2.7 × 10^−4 S^−1 | KON [6]: 1.0 × 10^5 M^−1S^−1
